Results on 1 molecule are retold here after patent US20210246223A1 (CRD PHARMACEUTICALS, published 2021).

As usually defined, the EC50 is the concentration at which the effect is half-maximal. A high value points to a less potent agent. A word on the koff: it is a measure of how fast the partners let go of each other. Higher therefore signals fast dissociation. As a reminder, the kon is the second-order rate constant of association. Read a high kon as faster complex formation. For orientation: Kd means the free concentration of one partner at which half of the binding sites on the other are occupied at equilibrium, for simple one-to-one binding.

One assay concerns the target T1, EGFR (UniProt P00533 25-645, limits assumed).
T1 construct: Coated on the ELISA plate at 1 µg/ml and also used in the western blot; also called HER1; ErbB1
In words: ELISA, plate coated with 1 µg/ml EGFR, increasing concentration of 29Z6. How it is done: (§1) ELISA plate was coated with 1 μg/ml of EGFR, HER2, or extracellular domain of HER3. The ELISA was incubated with increasing concentration of 29Z6 followed by incubation with HRP-goat-anti mouse IgG to detect 29Z6 antibody binding. […] Confirmation of the binding specificity was undertaken using western blotting. Only HER3 was bound to 29Z6 while EGFR or HER2 didn't (FIG. 10).
(In general: An ELISA detects its analyte on a solid surface through an enzyme-linked reagent.)

For another assay, the target named is T2, HER2 (UniProt P04626 23-652, limits assumed).
T2 construct: Coated on the ELISA plate at 1 µg/ml and also used in the western blot; also called ErbB2; Neu
In words: ELISA, plate coated with 1 µg/ml HER2, increasing concentration of 29Z6. How it is done:
as §1

Assay [1] concerns the target T3, HER3-Fc fusion comprising the extracellular domain (aa 20-643) of human HER3 (human, UniProt P21860 20-643).
T3 construct: range 20-643; also called human HER3-Fc fusion protein
In words: ELISA, HER3-Fc coated at 1 µg/ml, serial dilution of IgG 29Z6, anti-mouse Fc-HRP detection. As for the experimental part: Antigen binding of IgG 29Z6 was analyzed in ELISA using immobilized HER3-Fc fusion comprising the extracellular domain (aa 20-643) of human HER3. The HER3-Fc fusion protein was coated onto polystyrene microtiter plates at 1 μg/ml in PBS. Remaining binding sites were blocked with PBS, 2% skimmed milk (MPBS). Plates were then incubated with a serial dilution of IgG 29Z6 in MPBS. After washing, bound antibody was detected with an HRP-conjugated anti-mouse Fc antibody and TMB, H₂O₂ as substrate.

For assay [2], the target named is T4, extracellular domain of HER3 (human, UniProt P21860 20-643).
T4 construct: extracellular domain; also called purified extracellular domain of HER3; HER3 receptor ectodomain
In words: SPR (Biacore 3000), HER3 extracellular domain amine-coupled on CM5, 29Z6 mAb as analyte, 1:1 model, 25° C. As for the experimental part:
(§2) The binding kinetics of the 29Z6 mAb was analysed by surface plasmon resonance (SPR) using a Biacore3000 optical sensor platform equipped with research-grade CM5 sensor (GE Healthcare Bio-Sciences Corp., Piscataway, N.J.). Purified extracellular domain of HER3 was immobilized on the sensor chip surface of a carboxylated dextran-coated gold film using the standard amine coupling kit following the manufacturer's protocol. Briefly, 70 μL of a mixed solution of NHS/EDC (1:1, v/v) was injected to activate the carboxylated dextran, followed by manual injection of protein in 10 mM NaOAc (pH 4.5) until the desired surface density was reached. Ethanolamine 1 M in water (pH 8.5) was then injected to de-activate residual NHS-esters on the sensor chip. […] Kinetic data were evaluated by globally fitting the sensorgrams to a simple 1:1 interaction model using the Biacore software BiaEvaluation version 4.1 (GE Healthcare Bio-Sciences Corp.). The equilibrium KDs were determined from the resulting kinetic association and dissociation rates (kd/ka), and a minimum of nine independent runs were used to generate the reported standard deviations. A 1:1 binding model was used together with experimentally determined RMax as fixed parameter to determine association rate constant (ka), dissociation rate constant (kd), and equilibrium dissociation constant (KD). […]
On the technique in general: Surface plasmon resonance follows binding to a sensor surface in real time, without labels.

For assay [3], the target named is T4, extracellular domain of HER3. Kind of assay: SPR (Biacore 3000), HER3 extracellular domain amine-coupled on CM5, 29Z6 mAb 0.1-300 nM as analyte, 1:1 model, 25° C. How it is done: as §2

T4 sequence (P21860 20-643): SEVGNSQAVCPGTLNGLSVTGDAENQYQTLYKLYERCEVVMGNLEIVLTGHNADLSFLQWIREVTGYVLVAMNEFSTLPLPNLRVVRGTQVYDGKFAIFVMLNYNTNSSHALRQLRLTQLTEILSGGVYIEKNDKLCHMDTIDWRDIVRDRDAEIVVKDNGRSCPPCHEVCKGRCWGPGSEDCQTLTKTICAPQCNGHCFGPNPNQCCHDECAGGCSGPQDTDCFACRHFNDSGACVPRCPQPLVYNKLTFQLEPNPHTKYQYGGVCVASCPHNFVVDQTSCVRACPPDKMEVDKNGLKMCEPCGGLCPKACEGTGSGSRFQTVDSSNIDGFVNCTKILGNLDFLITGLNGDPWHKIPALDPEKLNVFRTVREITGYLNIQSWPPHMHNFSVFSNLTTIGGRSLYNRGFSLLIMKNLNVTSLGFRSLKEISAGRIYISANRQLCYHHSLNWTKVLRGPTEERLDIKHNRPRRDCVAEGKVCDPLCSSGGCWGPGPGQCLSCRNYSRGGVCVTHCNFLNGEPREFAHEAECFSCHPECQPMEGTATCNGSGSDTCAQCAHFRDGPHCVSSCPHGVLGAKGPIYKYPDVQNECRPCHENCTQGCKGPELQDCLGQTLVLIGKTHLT
T3 sequence (P21860 20-643 limits assumed): as the sequence (P21860 20-643) above

B1: anti-HER3 monoclonal antibody 29Z6 (antibody, mouse IgG2a, kappa, V domains shown)
VH: EVQLQESGPSLVKPSQTLSLTCYVTGDSITSGYWNWIRKFPGNKLEYMGYINYSGSTYYNPSLKSRISIIRDTSQNHYNLLLNSVTTEDTATYYCARLGTYYRYAGAMDYWGQGTSVTVSS
VL: DDVLTQTPLSLPVSLGDQASISCRSSQSLVHSNGNTYLHWYLQKPGQSPKLLIYKVSNRFSGVPDRFSGSGSGTDFTLKISRVEAEDLGVYFCSQSTHVPYTFGGGTKLEIKR
notes: also called IgG 29Z6; 29Z6 mAb
Turning to B1, the binding result with EGFR is given as “no binding”. For the same molecule, the binding result with HER2 is “no binding”. In addition, in assay [1], the EC50 stood at 0.88 nM. In assay [2], this molecule yielded a koff of 0.000295 s⁻¹ and a kon of 188000 M⁻¹ s⁻¹. For the same molecule, in assay [3], the Kd turned out to be 0.8 nM.
